Results on 2 molecules are retold here after patent publication US20190194356A1.

The target of the experiment is cynomolgus PCSK9 antigen (NCBI NM_001112660.1) (cynomolgus). In words: BLI (Octet Red 96), antibody on anti-human IgG Fc (AHC) biosensor, PCSK9 in solution, 1:1 model.

B1: monoclonal antibody 9M283 (antibody, human IgG2, lambda, V domains shown)
VH: QVQLVQSGAEVKKPGSSVKVSCKASAFTFDSFGMHWVRQAPGQGLEWMGLLWSDGSDEYYADSAKGRFTISRDNSKNTLYLQMNSLRSDDTAVYYCARALGAIYSYYAMDVWGQGTTVTVSS
VL: QSALTQPPSVSGSPGQSVTISCTGTSSNIGNQFVSWYQQLPGTAPKLMIYEYNKRPSGVPDRFSGSKSGNTASLTISGLQTGDEADYYCGSWDSSLSGYVFGTGTRVTVLG
For the molecule B1, the Kd worked out at 0.08 nM, the koff was 2.46e-05 s⁻¹ and the kon turned out to be 308000 M⁻¹ s⁻¹.

B2: monoclonal antibody 9M284 (antibody, human IgG2, lambda)
heavy: QVQLVQSGAEVKKPGSSVKVSCKASAFTFDSFGMHWVRQAPGQGLEWMGLLWSDGSGEYYADSAKGRFTISRDNSKNTLYLQMNSLRSDDTAVYYCARAMGAIYYYYAMDVWGQGTTVTVSSASTKGPSVFPLAPCSRSTSESTAALGCLVKDYFPEPVTVSWNSGALTSGVHTFPAVLQSSGLYSLSSVVTVPSSNFGTQTYTCNVDHKPSNTKVDKTVERKCCVECPPCPAPPVAGPSVFLFPPKPKDTLMISRTPEVTCVVVDVSHEDPEVQFNWYVDGVEVHNAKTKPREEQFNSTFRVVSVLTVVHQDWLNGKEYKCKVSNKGLPAPIEKTISKTKGQPREPQVYTLPPSREEMTKNQVSLTCLVKGFYPSDIAVEWESNGQPENNYKTTPPMLDSDGSFFLYSKLTVDKSRWQQGNVFSCSVMHEALHNHYTQKSLSLSPG
light: QSALTQPPSVSGSPGQSVTISCTGTSSNIGNQFVSWYQQLPGTAPKLMIYEYNKRPSGVPDRFSGSKSGNTASLTISGLQTGDEADYYCGSWDSSLSGYVFGTGTRVTVLGQPKAAPSVTLFPPSSEELQANKATLVCLISDFYPGAVTVAWKADSSPVKAGVETTTPSKQSNNKYAASSYLSLTPEQWKSHRSYSCQVTHEGSTVEKTVAPTECS
Take B2: the dissociation constant Kd is below 0.001 nM, the koff is below 1e-07 s⁻¹ and the kon came out at 298000 M⁻¹ s⁻¹.
